One block for each molecule: values may come before it.
Key:
mCCRL2 [1] = target: T1, mCCRL2 (Mus musculus, UniProt O35457); assay: intracellular calcium mobilization, CCRL2/HEK293 transfectants; format: cell-based; settings: HEK293 background, alone or in combination
T1 construct: The coding regions of mCCRL2, huCCRL2, mCRTH2, and huCCR10 were amplified from genomic DNA; expressed in transfected cells
T1 sequence (O35457 1-360): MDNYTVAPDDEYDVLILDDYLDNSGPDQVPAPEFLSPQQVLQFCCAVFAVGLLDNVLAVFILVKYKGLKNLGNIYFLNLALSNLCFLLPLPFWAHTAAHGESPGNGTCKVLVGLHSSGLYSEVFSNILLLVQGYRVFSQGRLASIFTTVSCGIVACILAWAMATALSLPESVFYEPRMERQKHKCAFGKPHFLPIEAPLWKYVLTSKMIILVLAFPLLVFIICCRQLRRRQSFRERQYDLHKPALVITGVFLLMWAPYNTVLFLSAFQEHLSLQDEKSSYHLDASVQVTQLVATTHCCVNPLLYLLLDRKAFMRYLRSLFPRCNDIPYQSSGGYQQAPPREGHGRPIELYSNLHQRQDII
Description: Chemoattractant-stimulated Ca^2+-mobilization was performed following Alliance for Cell Signaling protocol ID PP00000210. Cells (3×10^6/mL) were loaded with 4 μM Fluo4-AM and 0.16% Pluronic acid F-127 (Molecular Probes) in modified Iscove's medium (Iscove's medium with 1% heat inactivated bovine calf serum and 2 mM L-glutamine, Invitrogen) for 30 minutes at 37° C. The samples were mixed every 10 minutes during loading, washed once, resuspended at up to 2×10^6/mL in the same buffer, and allowed to rest in the dark for 30 minutes at room temperature. Chemoattractant-stimulated change in Ca^2+-sensitive fluorescence of Fluo-4 was measured over real-time with a FACsScan flow cytometer and CellQuest software (BD Biosciences) at room temperature under constant stirring (500 rpm). Fluorescent data were acquired continuously up to 1024 seconds at 1-second intervals. The samples were analyzed for 45 seconds to establish basal state, removed from the nozzle to add the stimuli, and then returned to the nozzle. Mean channel fluorescence over time was analyzed with FlowJo (TreeStar, Ashland, Oreg., USA) software. […] 500 μl of these chemerin-loaded cells were added to mCMKLR1/L1.2 cells loaded with Fluo4-AM, and calcium mobilization was evaluated.

mCCRL2 [2] = target: T1, mCCRL2; assay: in vitro transwell chemotaxis, mCCRL2/L1.2 transfectants; format: cell-based
Description: For migration experiments using cell lines, 2.5×10^5 cells/100 μl chemotaxis media (RPMI+10% fetal calf serum) were added to the top wells of 5-um pore transwell inserts (Costar, Corning, N.Y., USA), and test samples in 600 μl media were added to the bottom wells. After incubating the transwell plates for 1.5 hours at 37° C., the bottom wells were harvested and flow cytometry was used to assess migration. For primary cell chemotaxis, 1×10^6 cells/100 μl were added to the top well, and, following a 2 hour incubation at 37° C., polystyrene beads (15.0 μm diameter, Polysciences, Warrington, Pa., USA) were added to each well to facilitate normalization of the cell count. The cells were then stained for c-kit, F4/80, and/or CD11b expression and analyzed by flow cytometry. A ratio was generated and percent input migration was calculated.

mCCRL2 [3] = target: T1, mCCRL2; assay: chemerin binding/anti-mCCRL2 mAb displacement on peritoneal mast cells (flow cytometry); settings: 1000 nM
[4] = target: T2, mouse CCRL2 (chemokine (CC motif) receptor-like 2), untagged (mouse, UniProt O35457 1-360); assay: flow cytometry; chemerin inhibits staining of mouse peritoneal mast cells by the competitor anti-mCCRL2 BZ5B8; chemerin blocks anti-mCCRL2 mAb staining of mouse peritoneal mast cells
T2 construct: whole, on cells; also called mCCRL2; mCCRL2/L1.2
T2 sequence (looked up): T1 sequence (O35457 1-360)

[5] = target: T3, mouse CMKLR1 (chemokine-like receptor 1), untagged (mouse, UniProt P97468 1-371); assay: radioligand competition on L1.2 transfectants
T3 construct: whole, on cells; also called mCMKLR1; mCMKLR1/L1.2
T3 sequence (looked up): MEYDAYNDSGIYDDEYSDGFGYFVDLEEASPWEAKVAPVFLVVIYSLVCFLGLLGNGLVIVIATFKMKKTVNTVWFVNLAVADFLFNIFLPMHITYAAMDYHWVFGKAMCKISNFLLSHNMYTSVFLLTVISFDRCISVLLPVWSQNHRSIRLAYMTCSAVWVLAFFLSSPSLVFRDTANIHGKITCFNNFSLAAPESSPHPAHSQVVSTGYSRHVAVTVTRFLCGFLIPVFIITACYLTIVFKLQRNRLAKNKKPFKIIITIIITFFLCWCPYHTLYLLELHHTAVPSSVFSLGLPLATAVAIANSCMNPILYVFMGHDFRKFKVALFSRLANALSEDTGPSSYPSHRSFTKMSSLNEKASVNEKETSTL

[6] = target: T3, mouse CMKLR1 (chemokine-like receptor …); assay: radioligand competition on L1.2 transfectants, 125I-chemerin 21-148 displaced by the peptide … [panel B, legend box]
[7] = target: T3, mouse CMKLR1 (chemokine-like receptor …); assay: radioligand competition on L1.2 transfectants; displaces 125I-chemerin 21-148; 9-mer peptide … on CMKLR1

synergy of CCL2 and chemerin in transwell migration (mCCRL2 [2]; CCL2 with chemerin): did not synergize
transwell migration (mCCRL2 [2]; range of doses, CXCL12 and CCL19 act via endogenous CXCR4 and CCR7): did not induce migration
effect on CCRL2 staining (mCCRL2 [3]): no effect
Molecule: CCL2: chemokine purchased from R&D Systems
agonism, intracellular calcium mobilization (mCCRL2 [1]): neither CCL2 nor chemerin functioned as agonists

EC50 [4]: 21 nM
B1: human chemerin (as used to block anti-mCCRL2 staining, FIG. 6 Panel A) (ligand, UniProt Q99969 21-157, looked up)
chain: ELTEAQRRGLQVALEEFHKHPPVQWAFQETSVESAVDTPFPAGIFVRLEFKLQQTSCRKRDWKKPECKVRPNGRKRKCLACIKLGSEDKVLGRLVHCPIETQVLREAEEHQETQCLRVQRAGEDPHSFYFPGQFAFS

fold less potent (against chemerin protein) [5]: 10 fold
EC50 [6]: 29 nM
EC50 [7]: 26.2 nM
B2: bioactive 9-mer carboxyl-terminal chemerin peptide (residues 149-157) (peptide)
peptide: YFPGQFAFS
notes: Synthetic peptide; also called bioactive chemerin peptide

From patent US20100092974A1, “METHODS FOR SCREENING FOR MODULATORS OF CCRL2” (The Board of Trustees of the Leland Stanford Junior …, priority 2008, published 2010)
